These results are taken from the supplement of paper PMC9732359.

± gives the uncertainty stated by the source.

The nature of this series: protein stability index of a GFP-peptide fusion (yeast GPS) (PSI 1-4); higher = more stable; sorted into four equal gates, so the index is relative within each strain. Summed up:
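Mid-log yeast cultures in leucine-free medium, carrying a pooled plasmid library, were sorted into four equal gates by their GFP/Cherry fluorescence ratio. Each plasmid expressed Cherry along with GFP fused upstream of a tiled 17-residue yeast protein peptide. Plasmids recovered from each gate were PCR-amplified and Illumina-sequenced, with reads assigned to strains by barcodes. The protein stability index was obtained by summing each gate's read frequency weighted by its gate number.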

KKKRSRTSATREDTPLS [ISW2]: the protein stability index was determined as 3.51 ± 0.16 (doa10∆), 3.37 ± 0.083 (pdr5∆), 3.45 ± 0.058 (san1∆) and 3.22 ± 0.13 (ubr1∆).
On the same counts, the results for GRMDMTRLYDYEIRDID [SSN2] are 3.29 ± 0.24, 2.94 ± 0.15, 3.38 ± 0.074 and 3.36 ± 0.096.
ILNAKYTKETYQSRGID [RPN6]: the protein stability index is 2.96 ± 0.062 (doa10∆), 3.04 ± 0.066 (pdr5∆), 2.97 ± 0.06 (san1∆) and 2.8 ± 0.056 (ubr1∆).
The corresponding values for AEENLKKRIRLPSEERI [YIL149C/MLP2] are 2.89 ± 0.081, 2.48 ± 0.066, 2.61 ± 0.08 and 3.08 ± 0.044.
In the case of HYLFNTFTFTAHMGVLL [SWP82], the protein stability index is, setting by setting: (doa10∆) 1.69 ± 0.039; (pdr5∆) 1.68 ± 0.036; (san1∆) 1.39 ± 0.072; (ubr1∆) 1.51 ± 0.024.
On the same counts, the results for KTFNKIQSQVFESLYNS [BRR2] are 1.57 ± 0.061, 2.04 ± 0.064, 1.25 ± 0.12 and 1.73 ± 0.054.
On the same counts, the results for IVEQDKSMELFYDIRSL [YJL039C/NUP192] are 2.34 ± 0.13, 2.93 ± 0.11, 2.66 ± 0.086 and 3.16 ± 0.082.
The corresponding values for LKWSACTSLMDIIVAIK [IRR1] are 2.65 ± 0.14, 2.72 ± 0.057, 2.44 ± 0.16 and 2.83 ± 0.071.
In turn, EDILYYSTCPSETDLND [SRB8] displayed a protein stability index (doa10∆) of 2.29 ± 0.12, a protein stability index (pdr5∆) of 1.56 ± 0.099, a protein stability index (san1∆) of 2.14 ± 0.11 and a protein stability index (ubr1∆) of 1.92 ± 0.1.
Turning to SPVRSDSADVPAFSNSN [YMR153W/NUP53], the protein stability index is, setting by setting: (doa10∆) 3.06 ± 0.096; (pdr5∆) 3.07 ± 0.096; (san1∆) 3.21 ± 0.12; (ubr1∆) 2.93 ± 0.057.
Take PNFNVEIMQQKFPATNV [ECM29]: the protein stability index runs as follows: (doa10∆) 2.25 ± 0.26; (pdr5∆) 3 ± 0.2; (ubr1∆) 2.86 ± 0.17.
On to WHIEETGEWFSSYEEFL [ITC1], for which the protein stability index came to 2.31 ± 0.072 (doa10∆), 2.63 ± 0.077 (pdr5∆), 2.59 ± 0.066 (san1∆) and 2.53 ± 0.063 (ubr1∆).
The corresponding values for MHLMALHIHGSSNPLGI [COB] are 2.31 ± 0.07, 2.1 ± 0.059, 2.1 ± 0.052 and 2.32 ± 0.046.
On to TSIGIKCNDGVVFAVEK [PRE10], for which the protein stability index (san1∆) stood at 2.61 ± 0.29.
Consider RASDLRMTIRTRGRSAT [RRP43], for which the protein stability index is 2.93 ± 0.1 (doa10∆), 2.36 ± 0.093 (pdr5∆), 2.22 ± 0.17 (san1∆) and 2.33 ± 0.11 (ubr1∆).
The corresponding values for PLRDNGLLDESPNRLRV [YML031W/NDC1] are 3.2 ± 0.14, 3.03 ± 0.1, 3.15 ± 0.08 and 3.39 ± 0.074.
On the same counts, the results for YSNEPFNTNFDDEFGDL [SNF6] are 3.02 ± 0.1, 3 ± 0.093, 2.99 ± 0.059 and 3.06 ± 0.042.
The corresponding values for TSDSESTLYKYLKESKR [SWI3] are 3.11 ± 0.084, 2.66 ± 0.11, 2.89 ± 0.12 and 2.74 ± 0.054.
ESKQDGLSILFLTGQFA [YML103C/NUP188]: the protein stability index by setting is: (doa10∆) 2.79 ± 0.078; (pdr5∆) 2.57 ± 0.062; (san1∆) 2.88 ± 0.059; (ubr1∆) 2.72 ± 0.063.
The corresponding values for RLECVKCKTRAQLTLKR [RPL42A] are 2.8 ± 0.096, 2.46 ± 0.085, 2.52 ± 0.14 and 2.54 ± 0.056.
The corresponding values for REQYETQVALNESEKDQ [UBP6] are 3.1 ± 0.069, 2.66 ± 0.065, 2.69 ± 0.067 and 2.91 ± 0.051.
With CVEISHISKIIGLDTQQ [RPN6], the protein stability index (doa10∆) worked out at 2.38 ± 0.17.
The sequence EARFWHLVELLLVFRNA [YDL116W/NUP84] had a protein stability index (doa10∆) of 2.69 ± 0.079, a protein stability index (pdr5∆) of 2.1 ± 0.065, a protein stability index (san1∆) of 2.06 ± 0.085 and a protein stability index (ubr1∆) of 2.02 ± 0.064.
On the same counts, the results for MLPPKSVKFTHIAHTLP [SSN2] are 1.57 ± 0.073, 2 ± 0.05, 2.05 ± 0.098 and 1.82 ± 0.034.
The corresponding values for EGLNQRNQVQTENVAQA [YGR119C/NUP57] are 2.96 ± 0.12, 2.89 ± 0.16, 2.77 ± 0.095 and 2.65 ± 0.06.
The corresponding values for LEDELYHTNPGHSQFTS [RPN4] are 3.34 ± 0.11, 3.15 ± 0.09, 3.05 ± 0.082 and 3.21 ± 0.071.
